One series concerns the target TDP-43 RRM1-RRM2 (human, UniProt Q13148 101-265). As to the kind of experiment: fluorescence polarization. On the technique in general: Polarisation of emitted light reports the rotation of a fluorescent probe.
Another series addresses TDP-43 RRM1 (human, UniProt Q13148 101-191). The series is described as follows: fluorescence polarization.

As usually defined, the Kd is the equilibrium constant for the complex coming apart.

Chain of TDP-43 RRM1-RRM2 (Q13148 101-265): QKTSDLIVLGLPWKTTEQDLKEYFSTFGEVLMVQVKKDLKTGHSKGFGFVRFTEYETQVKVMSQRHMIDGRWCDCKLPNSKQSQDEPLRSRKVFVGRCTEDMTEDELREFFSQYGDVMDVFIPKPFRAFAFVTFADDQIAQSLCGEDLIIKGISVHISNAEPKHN
Chain of TDP-43 RRM1 (Q13148 101-191): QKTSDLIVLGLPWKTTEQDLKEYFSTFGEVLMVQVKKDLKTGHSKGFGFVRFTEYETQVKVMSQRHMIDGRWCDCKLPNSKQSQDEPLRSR

B1: (UG)6 RNA (ssRNA)
RNA: UGUGUGUGUGUG
Turning to B1, the Kd with TDP-43 RRM1-RRM2 stood at 9.5 ± 1.3 nM; with TDP-43 RRM1, 56.9 ± 2.1 nM.

Source of the values: publication PMC7784771.
